Data on 3 molecules can be found in patent US20150218281A1 (Ablynx, published 2015).

Where a chain is given by its changes, count along the chain named.

First the molecules themselves.
T1: biotinylated hOX40L (R&D Systems, biotinylated in house) (human, UniProt P23510 51-183, biotinylated with Sulfo-NHS-LC-Biotin, sites not stated)
T1 construct: same bought protein as m10, biotinylated; also called biotinylated OX40L
T1 sequence: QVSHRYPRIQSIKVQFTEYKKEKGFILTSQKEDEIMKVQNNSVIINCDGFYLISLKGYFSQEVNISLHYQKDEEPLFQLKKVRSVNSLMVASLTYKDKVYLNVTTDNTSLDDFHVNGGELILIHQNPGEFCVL

B1: OX40L056 (VHH, not shown: small tags and cut ends)
VHH: DVQLVESGGGLVQPGGSLRLSCAASRSIGRLDRMGWYRHRPGKPRELVATITGGSSINYADSVKGRFTISRDNSKNTVYLQMNSLRPEDTAVYYCNFNKYVTSRDTWGQGTLVTVSS
B2: OX40L082 (VHH, not shown: small tags and cut ends)
VHH: B1 VHH with D1E, K43E, A60G, R71I
B3: recombinant human OX40L (extracellular domain, R&D Systems) (ligand)
chain: T1 sequence
notes: also called hOX40L; rec. hOX40L

Experiment [1] deals with T1, biotinylated hOX40L (R&D Systems, …). The experiment in a line: hOX40L/hOX40 AlphaScreen, assay 3, heated at Tm+10 C. How it is done: (§1) Next, streptavidin donor beads were added and incubated for an additional 1 hour. Fluorescence was measured by reading plates on the EnVision Multilabel Plate Reader using an excitation wavelength of 680 nm and an emission wavelength of 520 nm.
(§2) In the TSA assay, Nanobodies were diluted to a concentration of 0.2 mg/ml and melting temperature (Tm) was determined at different pH by stepwise increase in temperature in presence of Sypro Orange, a dye that binds to […] residues that become exposed upon unfolding of the protein, using the Lightcycler (Roche) for detection. […] In SEC analysis, the Nanobodies were analyzed on a Phenomenex matrix to allow detection of multimers, aggregates or ‘stickyness’.

Experiment [2] has the same target. The experiment in a line: hOX40L/hOX40 AlphaScreen, assay 2, native; assay 2, native (not Tm + 10° C.).
For experiment [3] the target is unchanged. The experiment in a line: hOX40L/hOX40 AlphaScreen, assay 3, native. How it is done: as §1, §2
On the technique in general: Alpha assays give light when donor and acceptor beads are brought close together.

Experiment [4] concerns the target B3. The experiment in a line: cell-based or functional assay.
For experiment [5], the target named is T1, biotinylated hOX40L (R&D Systems, …). As to the kind of experiment: hOX40L/hOX40 AlphaScreen, assay 2, heated at Tm+10 C. On the procedure:
as §1, §2

Experiment [6] shares this target. The experiment in a line: hOX40L/hOX40 AlphaScreen.
The target in a further experiment is T2, OX40L01E07.
T2 construct: monovalent Nanobody from E. coli; not shown: C-terminal c-myc and His6 tag
As to the kind of experiment: competition ELISA: fixed concentration of OX40L01E07 pre-incubated with a concentration series of soluble hOX40L, then added to biotinylated hOX40L captured on neutravidin; bound Nanobody detected with rabbit anti-VHH antiserum and HRP goat anti-rabbit IgG, OD450nm. On the procedure: The binding of OX40L blocking Nanobodies to other TNF family members was tested in a competition ELISA.
Detection was done using sTMB (SDT Reagents, Baesweiler, Germany), the reaction was stopped with 1M HCl and absorbance was determined at 450 nm.
(ELISA stands for enzyme-linked immunosorbent assay.)

T2 sequence (VHH, as listed by the source): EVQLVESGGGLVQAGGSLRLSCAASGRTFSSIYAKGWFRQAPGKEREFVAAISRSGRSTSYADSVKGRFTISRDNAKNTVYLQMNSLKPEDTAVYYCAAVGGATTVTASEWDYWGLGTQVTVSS

As a reminder, the IC50 is the point on the concentration scale where inhibition reaches its midpoint. For the molecule B1, the IC50 in experiment [1], in experiment [2], in experiment [3] and in experiment [5] was 1.12 nM in each case. For the same molecule, the “IC50, T cell assay with rec. hOX40L” value in experiment [4] amounted to 135 nM.
For B2, the IC50 in experiment [1] and in experiment [3] was 0.14 nM each time. Moreover, the “fold decrease in potency compared with the parental Nanobody OX40L15B07” value in experiment [6] is approximately 2 fold.
As for B3, the “IC50 (read off the curve)” value with OX40L01E07 is approximately 800 pM.
